Laboratory results as given in patent US20240307538A1.
Values belong to the substance of their own block, whether it stands above or below them.

Key:
[1] = target: Fc gamma macrophage receptors; test: flow cytometry on human macrophages, hybrid 5 µg/ml, 20 h at 37°C, anti-Fc-FITC
[2] = target: Fc gamma macrophage receptors; test: flow cytometry on human macrophages, hybrid 5 µg/ml, 2 h at 37°C, anti-Fc-FITC
[3] = target: Fc gamma macrophage receptors; test: cell-based or functional assay
[4] = target: Fc gamma receptors of NK cells; test: cell-based or functional assay
[5] = target: Fc gamma receptors of NK cells; test: cytofluorimetry on NK cells, 24 h at 37°C
[6] = target: Fc gamma receptors of NK cells; test: cytofluorimetry on NK cells, 48 h at 37°C
[7] = target: Fc gamma receptors of NK cells; test: cytofluorimetry on NK cells, 30 min at 37°C
[8] = target: Fc gamma receptors of NK cells; test: cytofluorimetry on NK cells, labelled Fc 10 µg/ml, 30 min at 37°C, no IgG
[9] = target: Fc gamma receptors of NK cells; test: competition, cytofluorimetry on NK cells: labelled FcSDHFSTIE-N3-DBCO-A647 10 µg/ml with human IgG 10000 µg/ml; ratio to NEG
[10] = target: Fc gamma receptors of NK cells; test: competition, cytofluorimetry on NK cells: labelled FcSDHFSTIE-N3-DBCO-A647 10 µg/ml with human IgG 1 µg/ml; ratio to NEG
[11] = target: Fc gamma receptors of NK cells; test: competition, cytofluorimetry on NK cells: labelled FcSDHFSTIE-N3-DBCO-A647 10 µg/ml with human IgG 100 µg/ml
[12] = target: Fc gamma receptors of NK cells; test: competition, cytofluorimetry on NK cells: labelled FcSDHFSTIE-N3-DBCO-A647 10 µg/ml with human IgG 10 µg/ml; ratio to NEG
[13] = target: Fc gamma receptors of NK cells; test: competition, cytofluorimetry on NK cells: labelled FcSDHFSTIE-N3-DBCO-A647 10 µg/ml with human IgG 10000 µg/ml
[14] = target: Fc gamma receptors of NK cells; test: competition, cytofluorimetry on NK cells: labelled FcSDHFSTIE-N3-DBCO-A647 10 µg/ml with human IgG 1000 µg/ml
[15] = target: Fc gamma receptors of NK cells; test: competition, cytofluorimetry on NK cells: labelled FcSDHFSTIE-N3-DBCO-A647 10 µg/ml with human IgG 1 µg/ml
[16] = target: Fc gamma receptors of NK cells; test: competition, cytofluorimetry on NK cells: labelled FcSDHFSTIE-N3-DBCO-A647 10 µg/ml with human IgG 100 µg/ml; ratio to NEG
[17] = target: Fc gamma receptors of NK cells; test: competition, cytofluorimetry on NK cells: labelled FcSDHFSTIE-N3-DBCO-A647 10 µg/ml with human IgG 10 µg/ml
[18] = target: Fc gamma receptors of NK cells; test: competition, cytofluorimetry on NK cells: labelled FcSDHFSTIE-N3-DBCO-A647 10 µg/ml with human IgG 1000 µg/ml; ratio to NEG

Macrophages (fluorescence by cytofluorimetry) [1]: 404
Macrophages (fluorescence by cytofluorimetry) [2]: 502
Substance: Fc-LALA-β60-74cit (from UniProt P01857 104-330) (Fc fusion)

inhibition of phagocytosis by competing human IgG at 10 mg/ml [3]: 50%
Substance: Fc-WT-PEG-α621-635cit (from UniProt P01857 104-330) (Fc fusion)

% expression of CD107a (NK cell degranulation) [4]: 1.8%
Substance: Fc-WT-PEG-β60-74cit (from UniProt P01857 104-330) (Fc fusion)

Macrophages (fluorescence by cytofluorimetry) [1]: 1000
Macrophages (fluorescence by cytofluorimetry) [2]: 808
Substance: Fc-WT-β60-74cit (from UniProt P01857 104-330) (Fc fusion)

% expression of CD107a (NK cell degranulation) [4]: 2.2%
Substance: FcLALAPG-β60-74 (from UniProt P01857 104-330) (Fc fusion)

MFI [5]: 2350
MFI [6]: 1710
MFI [7]: 2970
Substance: FcSDHFSTIE-N3-DBCO-A488 (from UniProt P01857 104-330)

MFI [8]: 38500
Substance: FcSDHFSTIE-N3-DBCO-A647 (from UniProt P01857 104-330)

MFI [5]: 4090
MFI [6]: 4340
MFI [7]: 4590
Substance: FcSDHFSTIE-N3-DBCO-PEG3-β60-74cit-lysineA488 (from UniProt P01857 104-330) (Fc fusion)

RATIO of FcSDHFSTIE-N3-DBCO-A647 with IgG as competitor [9]: 96.6
RATIO of FcSDHFSTIE-N3-DBCO-A647 with IgG as competitor [10]: 179
MFI of FcSDHFSTIE-N3-DBCO-A647 with IgG as competitor [11]: 36300
RATIO of FcSDHFSTIE-N3-DBCO-A647 with IgG as competitor [12]: 183
MFI of FcSDHFSTIE-N3-DBCO-A647 with IgG as competitor [13]: 20500
MFI of FcSDHFSTIE-N3-DBCO-A647 with IgG as competitor [14]: 29500
MFI of FcSDHFSTIE-N3-DBCO-A647 with IgG as competitor [15]: 37900
RATIO of FcSDHFSTIE-N3-DBCO-A647 with IgG as competitor [16]: 171
MFI of FcSDHFSTIE-N3-DBCO-A647 with IgG as competitor [17]: 38800
RATIO of FcSDHFSTIE-N3-DBCO-A647 with IgG as competitor [18]: 139
Substance: human IgG (antibody)
